# Reference: publication PMC4248295
# T1: MSL2 CXC domain (Drosophila melanogaster, UniProt P50534 520-570, C560G)
# T1 sequence: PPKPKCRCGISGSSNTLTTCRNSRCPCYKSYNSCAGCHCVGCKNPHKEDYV
# B1: (GC)6 (12 bp) (dsDNA)
# DNA 1: GCGCGCGCGCGC
# DNA 2: GCGCGCGCGCGC
# Biological target: T1, MSL2 CXC domain
# Test: crystal structure
binder,measurement,value
B1,binding result,binds
